Consider six molecules from article PMC6679193, “Unraveling the Impact of Cysteine-to-Serine Mutations on the Structural and Functional Properties of Cu(I)-Binding Proteins” (International Journal of Molecular Sciences, 2019).

Sequences and labels used below:
B2: MBD3-4_C268S_C271S_C370S_C373S mutant of ATP7B (SER-MBD3-4) (domain or fragment, human)
chain: SANQNFNNSETLGHQGSHVVTLQLRIDGMHSKSSVLNIEENIGQLLGVQSIQVSLENKTAQVKYDPSCTSPVALQRAIEALPPGNFKVSLPDGAEGSGTDHRSSSSHSPGSPPRNQVQGTCSTTLIAIAGMTSASSVHSIEGMISQLEGVQQISVSLAEGTATVLYNPSVISPEELRAAIEDMGFEASVVSESCSTNPLGNH
notes: The methods describe only the wild-type construct; also called MBD3-4(Ser); source: expressed and purified as WT-MBD3-4 (E. coli Origami 2, chitin beads, intein self-cleavage)

Series [1] deals with B2. As to the kind of experiment: cross-linking; 0.1% glutaraldehyde, RT, 30 min or overnight, phosphate buffer (25 mM Na2HPO4, 150 mM NaCl, pH 8), read by SDS-PAGE; MBD3-4 at 50 uM or increasing concentrations, Atox1 at 50 uM; with or without Cu(I) at different ratios. As to conditions: both partners purified.
Series [2] concerns the target T1, ATP7B metal binding domains 3-4, wild type (WT-MBD3-4) (human, UniProt P35670 238-439).
T1 construct: The printed PCR primers encode a start at RPLSSAN and an end at TNPLGNH followed by a stop codon; Residues of the vector may remain after intein cleavage; also called ATP7B MBD3-4; ATP7B-MBD34; source: E. coli Origami 2, purified (chitin beads, intein self-cleavage with DTT)
T1 sequence: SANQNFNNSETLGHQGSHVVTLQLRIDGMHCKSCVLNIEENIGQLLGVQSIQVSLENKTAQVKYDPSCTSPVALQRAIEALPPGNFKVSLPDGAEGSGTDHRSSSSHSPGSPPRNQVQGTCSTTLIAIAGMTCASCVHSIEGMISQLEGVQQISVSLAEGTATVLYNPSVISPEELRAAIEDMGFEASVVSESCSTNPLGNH
Described as above. The note with it: both partners purified.

Series [3] deals with the molecule itself. The description is as above.
Series [4] concerns the molecule itself. As to the kind of experiment: cross-linking; 0.6% glutaraldehyde, RT, 30 min, phosphate buffer (25 mM Na2HPO4, 150 mM NaCl, pH 8), CueR at 20 uM, with or without Cu(I) at a 1:3 ratio, read by SDS-PAGE.

B1: Atox1 metallochaperone, wild type (WT-Atox1) (natural protein, human)
chain: MPKHEFSVDMTCGGCAEAVSRVLNKLGGVKYDIDLPNKKVCIESEHSMDTLLATLKKTGKTVSYLGLE
notes: Human Atox1 copper metallochaperone
B1: the binding result in series [1] and in series [2] was “binds” each time.

On to B2, for which, in series [3], the binding result is reported as “binds”.

B3: CueR metalloregulator of E. coli, wild type (WT-CueR) (natural protein, UniProt P0A9G4 1-135, looked up)
chain: MNISDVAKITGLTSKAIRFYEEKGLVTPPMRSENGYRTYTQQHLNELTLLRQARQVGFNLEESGELVNLFNDPQRHSADVKRRTLEKVAEIERHIEELQSMRDQLLALANACPGDDSADCPIIENLSGCCHHRAG
notes: No cleavage is described; source: E. coli BL21, purified (Ni-NTA agarose)
Turning to B3, in series [4], the stoichiometry N – broadly, a count of units in the complex or per binding partner – stood at 2.

B4: CueR_C112S (natural protein, E. coli, UniProt P0A9G4 1-135, looked up)
chain: MNISDVAKITGLTSKAIRFYEEKGLVTPPMRSENGYRTYTQQHLNELTLLRQARQVGFNLEESGELVNLFNDPQRHSADVKRRTLEKVAEIERHIEELQSMRDQLLALANASPGDDSADCPIIENLSGCCHHRAG
notes: E. coli CueR, same construct as m4, with C112S; source: E. coli BL21, purified (Ni-NTA agarose)
For B4, in series [4], the binding result is listed as “binds”.

B5: CueR_C112S_C120S (natural protein, E. coli, UniProt P0A9G4 1-135, looked up)
chain: MNISDVAKITGLTSKAIRFYEEKGLVTPPMRSENGYRTYTQQHLNELTLLRQARQVGFNLEESGELVNLFNDPQRHSADVKRRTLEKVAEIERHIEELQSMRDQLLALANASPGDDSADSPIIENLSGCCHHRAG
notes: E. coli CueR, same construct as m4, with C112S and C120S; source: E. coli BL21, purified (Ni-NTA agarose)
With B5, the binding result in series [4] is “binds”.

B6: CueR_C120S (natural protein, E. coli, UniProt P0A9G4 1-135, looked up)
chain: MNISDVAKITGLTSKAIRFYEEKGLVTPPMRSENGYRTYTQQHLNELTLLRQARQVGFNLEESGELVNLFNDPQRHSADVKRRTLEKVAEIERHIEELQSMRDQLLALANACPGDDSADSPIIENLSGCCHHRAG
notes: E. coli CueR, same construct as m4, with C120S; source: E. coli BL21, purified (Ni-NTA agarose)
Take B6: in series [4], the binding result is “binds”.
